Results: patent US20170283495A1 (published 2017)
Where no end group is shown, it is not given here.

T1: NT-biotin hepcidin-25 (human, NT-biotin (biotin label; NT is not spelled out, taken as the N-terminus))
T1 construct: also called NT-biotin hepcidin-25 tracer
T1 peptide: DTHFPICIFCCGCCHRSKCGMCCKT

T2: K18-biotin hepcidin-25 (human, biotin on K18)
T2 construct: also called K18-Biotin Hepcidin-25 tracer
T2 peptide: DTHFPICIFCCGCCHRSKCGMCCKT

T3: K24-biotin hepcidin-25 (human, biotin on K24)
T3 construct: also called K24-biotin hepcidin-25 tracer
T3 peptide: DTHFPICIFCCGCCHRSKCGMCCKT

T4: mouse hepcidin-1 peptide (mouse)
T4 construct: also called murine hepcidin-1; mouse hepcidin-25
T4 peptide: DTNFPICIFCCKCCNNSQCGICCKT

T5: human hepcidin 10-25 peptide (human, disulfide (positions not given here); also: oxidized and refolded with proper cysteine bonds, pairing not given here)
T5 construct: also called hep 10-25; hHepcidin 10-25
T5 peptide: CCGCCHRSKCGMCCKT

B1: human hepcidin-25 (synthetic) (peptide)
peptide: DTHFPICIFCCGCCHRSKCGMCCKT
notes: Synthetic, biologically active 25 aa peptide; also called hep-25; Hep-25
B2: human hepcidin-20 peptide (peptide)
peptide: ICIFCCGCCHRSKCGMCCKT
notes: also called hep-20; hHepcidin-20
B3: murine anti-hepcidin MAb 583 (antibody, V domains shown)
VH: QIQLVQSGPELKKPGETVKISCKASGYTFTNYGMNWVKQAPGKGLKWMGWINTYTGEPTYADDFKGRFAFSLETSASTAYLQINNLKNEDTATYFCTTYATSWYWGQGTTLTVSS
VL: DIVLTQSPASLAVSLGQRATISCRASESVDSYGNSFMHWYQQKPGQPPKLLIYRASNLESGIPARFSGSGSRTDFTLTINPVEADDVATYYCQQSNEDLTFGGGTKLEIK
notes: Murine IgG from a hybridoma, purified on protein G (Protein A in some legends); detected with anti-mouse IgG1 (H+L); also called 5A3; hybridoma 5A3

Assays:
[1] = target: B3; assay: C-ELISA, purified MAb 583 coated, hepcidin-25 against NT-biotin hepcidin-25 tracer (FIG. 16)
Description: FIG. 16. […] The relative binding of the NT-biotin hepcidin-25 tracer (1 ng/well) relative to hepcidin-25, hepcidin-22, and hepcidin-20 was measured by ELISA. Four parameter logistical regression analysis was conducted using GraphPad Prism software to produce the curves shown.

[2] = target: T6, BAP070-01 human-mouse chimeric MAb 583; assay: C-ELISA, BAP070-01 supernatant on Protein G, hepcidin-25 against NT-biotin hepcidin-25 tracer, 4-parameter fit
T6 construct: tested as unpurified CHO cell supernatant (3650 ng/ml IgG); also called BAP070-01 chimera
Description: To capture BAP070-01 chimeric antibodies we coated microwell plates with Protein G (150 ng/well) overnight in carbonate coating buffer.
The plate was washed with TBST and one (1) ng/well of NT-biotin hepcidin-25 was mixed with different amounts (0-100 ng) of synthetic hepcidin-25 standard in TBST, 0.25% BLOTTO and added onto the plate to bind competitively. The plate was washed with TBST and SA-HRP (1:2500) added and allowed to bind for 1 hour.
The standard curve shown in FIG. 31 was generated using a four parameter logistical regression (Graphpad Prism; San Diego, Calif.).

[3] = target: B3; assay: competition ELISA, MAb 583 coated, NT-biotin hepcidin-25 tracer
[4] = target: T1, NT-biotin hepcidin-25; assay: ELISA, 583 coated at 100 ng/well, tracer 1 ng/well, SA-HRP
Description: (§1) We used a microwell plate ELISA to assess antibody activity. […] The NT-biotin hepcidin-25 tracer was added across the plate at 1 ng/well in TBST, pH 8) containing 0.25% Blotto. The tracer was allowed to bind for 2 hours and the wells were washed in TBST, pH 8 with no Blotto. SA-HRP was added at 1:2500 for 30 minutes, the wells washed in TBST, and TMB substrate added for 10 minutes. Stop buffer was added the OD quantified on a spectrophotometer at 450 nm. An OD of 4 indicates the absorbance is beyond the analytic range of the spectrophotomer.

[5] = target: T1, NT-biotin hepcidin-25; assay: ELISA, 583 coated at 25 ng/well, tracer 1 ng/well, SA-HRP
Description: as §1

[6] = target: T1, NT-biotin hepcidin-25; assay: Biacore SPR, biotin peptide on neutravidin chip, MAb 583 at 24 µg/ml
Description: (§2) Biotinylated hepcidin peptides (NT-biotin-hepcidin-25, K18-biotin-hepcidin-25 and K24-biotin-hepcidin-25) were immobilized in flow cells 2-4 (one peptide species per flow cell) by injecting individual peptides at a concentration of 200 μg/ml at a flow rate of 5 μl/min, for 20 min.
(§3) After 3 minutes, injection was stopped and dissociation was followed for 6 min. Regeneration was performed by injecting 10 mM glycine HCl, pH 1.5 at a flow rate of 10 μl/min for 1 min.

[7] = target: T2, K18-biotin hepcidin-25; assay: as above
Description: as §2, §3

[8] = target: T3, K24-biotin hepcidin-25; assay: as above
Description: as §2, §3

[9] = target: T4, mouse hepcidin-1 peptide; assay: competition ELISA, MAb 583 coated, NT-biotin hepcidin-25 tracer
[10] = target: T5, human hepcidin 10-25 peptide; assay: as above
[11] = target: T1, NT-biotin hepcidin-25; assay: ELISA, 583 coated at 12.5 ng/well, tracer 1 ng/well, SA-HRP
Description: as §1

[12] = target: B2; assay: Western blot after non-reducing tricine SDS-PAGE
[13] = target: T1, NT-biotin hepcidin-25; assay: ELISA, 583 coated at 50 ng/well, tracer 1 ng/well, SA-HRP
Description: as §1

[14] = target: T1, NT-biotin hepcidin-25; assay: Biacore SPR, biotin peptide on chip, MAb 583 at 5 µg/ml
[15] = target: T2, K18-biotin hepcidin-25; assay: as above

Binder: B1
EC50 [1]: ≤ 0.005 µg/mL | EC50 [2]: 0.054 µg/mL

Binder: B2
binding result [3]: binds

Binder: B3
OD 450 nm [4]: ≥ 4 OD | OD 450 nm [5]: ≥ 4 OD | Ka [6]: 1.94e+10 M⁻¹ | Kd [6]: 0.0516 nM | Req [6]: 78.8 RU | kobs [6]: 0.00977 s⁻¹ | koff [6]: 3.15e-06 s⁻¹ | kon [6]: 61100 M⁻¹ s⁻¹ | Ka [7]: 1.14e+09 M⁻¹ | Kd [7]: 0.878 nM | Req [7]: 126 RU | kobs [7]: 0.0102 s⁻¹ | koff [7]: 5.59e-05 s⁻¹ | kon [7]: 63700 M⁻¹ s⁻¹ | Ka [8]: 1.8e+08 M⁻¹ | Kd [8]: 5.54 nM | Req [8]: 63.1 RU | kobs [8]: 0.0086 s⁻¹ | koff [8]: 0.000288 s⁻¹ | kon [8]: 52000 M⁻¹ s⁻¹ | binding result [9]: no binding (tested: up to 2000 ng/ml) | binding result [10]: no binding (tested: up to 2000 ng/ml) | OD 450 nm [11]: ≥ 4 OD | binding result [12]: binds | OD 450 nm [13]: ≥ 4 OD | Kd [14]: ~0.018 nM | Kd [15]: ~0.0075 nM
